Source: patent publication US9744212B2, “Galectin-3C combination therapy for human cancer” (Texas Tech University System, priority 2011, dated 2017)

Key:
[1] = tested on: GFP-expressing HUVECs in U266 tumors; experiment: Pilot study of in vivo angiogenesis inhibition (GFP-HUVEC plus U266 in Matrigel, nude mice); parameters: species or system mouse
Method: Pilot study of in vivo angiogenesis inhibition by Gal-3C. To determine the ability of Gal-3C to inhibit angiogenesis in vivo, 106 HUVECs infected with GFP-expressing rAAV vectors and 107 U266 MM cells were mixed together and suspended in 300 μL Matrigel. The cell mixture was injected subcutaneously into 6 nude mice and allowed to grow for two weeks. Three days after tumor administration, the mice were divided into two groups and one group was implanted with osmotic mini-pumps and treated with Gal-3C as in the study describe above. After 2 weeks, mice were sacrificed, pictures were taken, and the GFP-expressing cells in tumor masses were analyzed by flow cytometry.
The ability of Gal-3C to inhibit angiogenesis in vivo was determined in a pilot study. Six mice were injected with […] HUVECs and 107 U266 MM cells suspended in Matrigel and divided into two groups after two weeks. One group of 3 mice was implanted with osmotic mini-pumps and treated with Gal-3C as described above.

[2] = tested on: U266 MM cells; experiment: Chemotaxis of U266 cells toward SDF-1α in transwell chambers; type: cell-based, human; conditions: Gal-3C at 2.0 μg/ml; SDF-1α 100 ng/ml; 4 hours
Method: Chemotaxis of U266 Cells. U266 cells (400×10^3/well) were plated in 100-μl cell culture media with and without Gal-3C (0, 0.4, 2.0, 10, and 20 μg/ml) in the top chambers of 24-well transwell inserts with 8-μm pores. Cell culture media (600 μ ? ) containing the B-cell chemoattractant stromal cell-derived factor (SDF)-1 ? (100 ng/ml; R&D Systems, Minneapolis, Minn., USA) was added to the bottom chamber. After 4 hours, the number of U266 cells in the bottom chamber was counted with a FACScan flow cytometer (flux rate on high, a 2 min acquisition gate, and 200 μs resolution).
FIG. 2 is a graph of Gal-3C inhibits the chemotaxis of U266 MM cells Gal-3C (0.4, 2, 10, or 20 μg/ml) in bicameral chambers in response to stromal cell-derived factor (SDF)-1α (100 ng/ml). Error bars are ±S.D. and sextuplicate data points are represented (ANOVA with Turkey test P<0.001 for all comparisons to controls). […] Gal-3C at 2.0 μg/m1 inhibited more than 60% of the U266 cell chemotaxis stimulated by the chemokine, SDF-1α. The SDF-1α and its receptor, CXCR4, are regulators of the migration and homing of MM cells to the bone marrow, and possibly may also control egression of MM cells out of the bone marrow (76).

[3] = tested on: NF-kB (serine 529 phosphorylated p65 subunit); experiment: Quantification of NF-kappaB activation by flow cytometry in U266 cells; type: cell-based, human; conditions: 48 hours
Method: Quantification of NF-kappaB Activation by Flow Cytometry. For measurement of NF-kB activation, 200×10^3 cells were fixed with 2% PFA in ice-cold PBS for 30 minutes. After removal of PFA, cells were permeabilized with 0.3% saponin in PBS on ice for 15 minutes, then washed and resuspended in 50 μL PBS supplemented with 1% BSA. PE-labeled anti-phosphorylated serine 529 p65 antibody (BD Biosciences, San Jose, Calif., USA) or isotype control (final dilution, 1:20) and allowed to incubate on ice in the dark for 30 minutes. Before flow-cytometric analysis cells were washed 3 times in 1-mL cold PBS with 1% BSA.
FIG. 8A is a dot-plot of NF-kB activation in U266 cells. After 48 hours in the presence of indicated treatments, the levels of active NF-KB (serine 529 phosphorylated p65 subunit) were evaluated in U266 cells by flow cytometry.

[4] = tested on: MM cell lines (ARP-1, ARK-B, U266, 8226/Dox, MM-1S, MM-RL, NCI-H929, RMPI-8266); experiment: Cell proliferation (viability) assays of MM cell lines; type: cell-based, human; conditions: all eight cell lines, at one or more concentrations (0.5, 1, 2 or 4 μg/ml); 48 hours; P<0.05; magnitude slight
Method: EXAMPLE 3 illustrates Gal-3C inhibits proliferation of MM cells. Cell Proliferation (Viability) Assays. Cell proliferation was assessed with a ViaLight Plus Cell Proliferation and Cytotoxicity BioAssay Kit (Lonza, Walkersville, Md., USA) according to the directions of the manufacturer. In brief, myeloma cells were seeded (8,000 per well) in 50 μL of RPMI-1640 with 10% heat-inactivated FBS (growth medium) in 96-well plates. HUVEC cells were seeded (10,000/well) in 50 μl EGM-2 medium in 96-well plates. Gal-3C (2× concentration) in 50 μL of growth medium was added to triplicate wells and the plate kept at the CO2 incubator at 37° C. for 48 hour. For the ViaLight assay, 50 μL of lysis buffer was added to each well, the plate was incubated for 10 minutes, after which 50 μL of cell lysate from each well was transferred to a solid white Lumitrac-200 plate and 50 μL of reconstituted AMR Plus was added. Luminescence was measured with a 1-s integrated setting in a Berthold luminometer after 2 minutes. […] Fluorescence intensity was measured at 590-nm on a Polarstar Galaxy (BMG Labtech, Cary, N.C.) microplate reader. The blank (growth media with 10 μl Alamar Blue) was subtracted from the raw fluorescence to obtain adjusted fluorescence readings. Triplicate data points were analyzed and the data shown are representative of 3 or more studies. […]

[5] = tested on: HUVEC; experiment: Vascular endothelial cell viability assay; type: cell-based, human; conditions: 48 h
Method: FIGS. 4A and 4B are graphs of the data from the vascular endothelial cell viability assay. […] The graphs show mean values and error bars represent 95% C.I. **=ANOVA Tukey's post test p<O.Ol. n.s.=not significant. […] Viability was measured as described for the U266 cells. […] Results obtained from the HUVEC viability studies that were run in triplicate are depicted in FIGS. 4A-B, and are presented as a percentage of control (untreated) cells.
EXAMPLE 3 illustrates Gal-3C inhibits proliferation of MM cells. Cell Proliferation (Viability) Assays. Cell proliferation was assessed with a ViaLight Plus Cell Proliferation and Cytotoxicity BioAssay Kit (Lonza, Walkersville, Md., USA) according to the directions of the manufacturer. In brief, myeloma cells were seeded (8,000 per well) in 50 μL of RPMI-1640 with 10% heat-inactivated FBS (growth medium) in 96-well plates. HUVEC cells were seeded (10,000/well) in 50 μl EGM-2 medium in 96-well plates. Gal-3C (2× concentration) in 50 μL of growth medium was added to triplicate wells and the plate kept at the CO2 incubator at 37° C. for 48 hour. For the ViaLight assay, 50 μL of lysis buffer was added to each well, the plate was incubated for 10 minutes, after which 50 μL of cell lysate from each well was transferred to a solid white Lumitrac-200 plate and 50 μL of reconstituted AMR Plus was added. Luminescence was measured with a 1-s integrated setting in a Berthold luminometer after 2 minutes. With Alamar Blue, 10 μL of reagent was added per well and the plate kept in the CO2 incubator for 4 hours. Fluorescence intensity was measured at 590-nm on a Polarstar Galaxy (BMG Labtech, Cary, N.C.) microplate reader. The blank (growth media with 10 μl Alamar Blue) was subtracted from the raw fluorescence to obtain adjusted fluorescence readings. Triplicate data points were analyzed and the data shown are representative of 3 or more studies.

B1: Gal-3C: N-terminally truncated human galectin-3 consisting of 143 carboxy-terminal amino acid residues, SEQ ID NO: 1 (protein)
chain: GAPAGPLIVPYNLPLPGGVVPRMLITILGTVKPNANRIALDFQRGNDVAFHFNPRFNENNRRVIVCNTKLDNNWGREERQSVFPFESGKPFKIQVLVEPDHFKVAVNDAHLLQYNHRVKKLNEISKLGISGDIDITSASYTMI
mean fluorescence intensity (MFI) of cells from tumor masses ([1]; GFP-expressing HUVEC, FACS, controls 19.24): 9.4 MFI
reduction of the number of endothelial cells in the tumors ([1]; compared to control mice): 48%
GFP-expressing HUVECs as share of the cells in tumor masses ([1]; controls 89.3%): 46.2%
subcutaneous vascularization near tumors ([1]; image analyses of nude mice): markedly reduced
tumor size (white circles, representative mouse) ([1]; nude mice, control 7 mm): 3 mm
inhibition of U266 cell chemotaxis stimulated by SDF-1α [2]: more than 60%
NF-kB activation (phosphorylated active form) [3]: did not have a significant effect
proliferation of MM cells [4]: significantly inhibited
effect on HUVEC viability ([5]; at the concentration used in the chemotaxis and angiogenesis assays (Gal-3C 2 μg/ml, Bor 1 nM)): did not display significant effects
effect on HUVEC viability ([5]; at the highest concentrations): mild effect
